# B1: CF-KAAYSLGYYNPT-NH2 (peptide)
# peptide: {5(6)‑carboxyfluorescein}-KAAYSLGYYNPT-NH2
# notes: combined peptide: KAAYSL followed by GYYNPT; also called cP(AA)_P(YY); cP(AA)_(YY); source: synthetic peptide (Fmoc/tBu solid phase, RP-HPLC purified)
# Biological target: T1, human epidermal growth factor 2 (HER2) receptor (human (endogenous in MDA-MB-453, …, UniProt P04626 23-1255))
# T1 construct: HER2 (ErbB2), 185 kDa transmembrane glycoprotein, endogenous on human breast cancer cell lines; No isolated HER2 was tested; also called ErbB2; source: endogenous, on MDA-MB-453 breast cancer cells (highest HER2 expression); also on MDA-MB-435 Br and MCF-7 cells (medium HER2 expression)
# Test: flow cytometry on cells; MDA-MB-453 cells incubated with CF-labelled peptides, 12.5 µM, 3 h, 37 °C, 5 min trypsinization; read-out percentage of CF+ live cells and mean fluorescence intensity
# Details: one partner purified
binder,measurement,value
B1,fold increase of mean fluorescence intensity over P(AA),~10 fold

# — article PMC7072344, “Structure–Activity Relationship of HER2 Receptor Targeting Peptide and Its Derivatives in Targeted Tumor Therapy” (Biomolecules, 2020)
